Assay results from patent US20100137208A1, “INTRATUMORALLY ADMINISTERED LACTOFERRIN IN THE TREATMENT OF MALIGNANTNEOPLASMS AND OTHER HYPERPROLIFERATIVE DISEASES” (priority 2002, published 2010).

Key:
[1] = system: IL-18; assay: IL-18 levels in small intestine and serum after oral rhLF or bLF (ELISA); assay type: in vivo, mice; settings: for IL-18 level, Intestinal Extract / IL-18 level, Serum: 24 h after last dose
Experimental: Recombinant human lactoferrin and bovine lactoferrin were orally administered to mice, and the production of IL-18 in the small intestine was measured.
Mice were treated for three days daily with 65 mg/kg/day of rhLF, 300 mg/kg/day of rhLF or 300 mg/kg/day of bLF. For a control, mice were only administered the pharmaceutical carrier. Twenty-four hours following administration of the LF or control for 3 days, animals were weighed and blood and serum were collected. Serum was used for cytokine ELISA assays.
Also, at these time points, animals were sacrificed and the small intestinal tissue was removed for further analysis. Small intestinal epithelium was homogenized using a lysis buffer consisting of PBS, 1% Nonidet P-40, 0.5% sodium deoxycholate, and 0.1% sodium dodecyl sulphate containing 10 μg/ml PhenylMetheylsulfonyl fluoride. Homogenate was centrifuged at 15,000 rpm for 10 minutes and the supernatant stored at −80 C till it was tested for IL-18 levels.

[2] = system: murine squamous carcinoma cell line (SCCVII); assay: SCCVII floor-of-mouth tumor growth, oral rhLF and/or radiotherapy; assay type: in vivo, C3H mice
Experimental: A murine squamous carcinoma cell line (SCCVII) was injected into the floor of mouth through the neck skin of immunocompetent C3H mice (Day 0). […] Tumors were measured in three dimensions with calipers.
Tumor-bearing mice were randomized into six groups receiving rhLF (200 mg/Kg) and/or radiotherapy as described below. RhLF (4 mg; 200 mg/kg) was administered by oral gavage once daily for 8 days on days 5 through 12. Radiotherapy was administered as single dose of 2 Gray given at the beginning (day 5) or at during (day 8) rhLF-therapy. Animals were sacrificed on day 14 post-treatment and the residual tumor masses were measured and processed for later additional analyses.

[3] = system: circulating lymphocytes; assay: Circulating lymphocytes following intratumoral rhLF in tumor-bearing mice; assay type: in vivo, C3H/HeJ mice
Experimental: Normal C3H/HeJ mice were implanted with one of two mouse tumors following the methodology described in Example 17. Tumors used were SCCVII and RIF mouse tumor cell lines. Following establishment of the tumors in the mice, tumors were injected intratumorally daily for 4 days with 250 or 500 μg rhLF per dose or with vehicle control. Twenty four hours following the last intratumoral injection, animals were sacrificed and the blood examined for lymphocyte populations. The number of circulating lymphocytes were increased by 34% to 56% relative to the placebo treated control animals (Table 14).

[4] = system: O12 human oropharyngeal squamous cell carcinoma tumor cells; assay: Intratumoral rhLF in O12 tumors in nude mice; assay type: in vivo, athymic nude mice
Experimental: O12 human oropharyngeal squamous cell carcinoma tumor cells were injected to the right flank of athymic nude mice. Recombinant human lactoferrin and vehicle controls were dosed via intratumoral injection. Each animal was administered different concentrations of rhLF in 50 μL doses consisting of four separate injections of approximately 12.5 μL of the dose, at different directions and angles (approximately S/N/E/W) to ensure that the dose was distributed evenly throughout the tumor (fanning).
In this study, rhLF was administered directly into the tumor. Each animal was tracked daily for tumor growth by external caliper measurements of the protruding tumor.

[5] = system: GM-CSF; assay: GM-CSF production in small intestine after oral rhLF (ELISA); assay type: in vivo, mice; settings: oral 300 mg/kg/day for three days
Experimental: Recombinant human lactoferrin or placebo were orally administered to mice, and the production of GM-CSF in the small intestine was measured.
Mice (5 animals per group) were treated for three days daily with 300 mg/kg/day of rhLF. For a control, mice were only administered the pharmaceutical carrier. Twenty-four hours following administration of the LF or placebo for 3 days, animals were and the small intestinal tissue was removed for further analysis. Small intestinal epithelium was homogenized using a lysis buffer consisting of PBS, 1% Nonidet P-40, 0.5% sodium deoxycholate, and 0.1% sodium dodecyl sulphate containing 10 μg/ml PhenylMetheylsulfonyl fluoride. Homogenate was centrifuged at 15,000 rpm for 10 minutes and the supernatant stored at −80 C till it was tested for GM-CSF levels using an ELISA kit.

[6] = system: murine squamous carcinoma cell line (SCCVII); assay: SCCVII floor-of-mouth tumor growth, oral rhLF and/or cisplatin; assay type: in vivo, C3H mice; settings: rhLF 200 mg/Kg oral once daily days 5-12, no cisplatin
Experimental: A murine squamous carcinoma cell line (SCCVII) was injected into the floor of the mouth through the neck skin of immunocompetent C3H mice (Day 0). […] Tumors were measured in three dimensions with calipers.
Tumor-bearing mice were randomized into a control group and seven groups receiving rhLF and/or cisplatin. RhLF (4 mg; 200 mg/Kg) was administered once daily by oral gavage for 8 days on days 5 through 12. Cisplatin was administered as a single dose of 5 mg/Kg given intraperitoneally either at the start of rhLF (day 5), in the middle (day 8) or at the end (day 12) of rhLF therapy. Animals were sacrificed on day 12 post-implantation and the residual tumor masses were measured and processed for later additional analyses.
A murine squamous carcinoma cell line (SCCVII) was injected into the floor of the mouth through the neck skin of immunocompetent C3H mice (Day 0) as described in Example 6. On Day 5 days after initial implantation, tumors were measured for the baseline, then treated with either cisplatin (Day 8, i.p., 5 mg/kg) alone or cisplatin plus three doses of oral rhLF (daily by gavage for 7-8 days on days 5 through 11/12). Animals were sacrificed on Day 11/12 and tumors measured.

[7] = oral 65 mg/kg/day for three days
[8] = oral 65 mg/kg/day rhLF versus 300 mg/kg bLF
[9] = oral 300 mg/kg/day for three days
[10] = oral 300 mg/kg/day rhLF versus 300 mg/kg bLF
[11] = blood, 24 h after 4 daily intratumoral doses of 250 or 500 μg, SCCVII or RIF tumors

B1: rhLF: recombinant human lactoferrin, a single chain metal binding glycoprotein (protein, UniProt P02788 20-710, looked up)
Lactotransferrin: GRRRSVQWCAVSQPEATKCFQWQRNMRKVRGPPVSCIKRDSPIQCIQAIAENRADAVTLDGGFIYEAGLAPYKLRPVAAEVYGTERQPRTHYYAVAVVKKGGSFQLNELQGLKSCHTGLRRTAGWNVPIGTLRPFLNWTGPPEPIEAAVARFFSASCVPGADKGQFPNLCRLCAGTGENKCAFSSQEPYFSYSGAFKCLRDGAGDVAFIRESTVFEDLSDEAERDEYELLCPDNTRKPVDKFKDCHLARVPSHAVVARSVNGKEDAIWNLLRQAQEKFGKDKSPKFQLFGSPSGQKDLLFKDSAIGFSRVPPRIDSGLYLGSGYFTAIQNLRKSEEEVAARRARVVWCAVGEQELRKCNQWSGLSEGSVTCSSASTTEDCIALVLKGEADAMSLDGGYVYTAGKCGLVPVLAENYKSQQSSDPDPNCVDRPVEGYLAVAVVRRSDTSLTWNSVKGKKSCHTAVDRTAGWNIPMGLLFNQTGSCKFDEYFSQSCAPGSDPRSNLCALCIGDEQGENKCVPNSNERYYGYTGAFRCLAENAGDVAFVKDVTVLQNTDGNNNEAWAKDLKLADFALLCLDGKRKPVTEARSCHLAMAPNHAVVSRMDKVERLKQVLLHQQAKFGRNGSDCPDKFCLFQSETKNLLFNDNTECLARLHGKTTYEKYLGPQYVAGITNLKKCSTSPLLEACEFLRK
IL-18 Intestinal Extract % Increase Over Control [1, 7]: 725% | IL-18 Serum % Increase Over Control [1, 7]: 84% | IL-18 level, Intestinal Extract [1, 7]: 7,879 pg | IL-18 level, Serum [1, 7]: 259 pg | IL-18 Intestinal Extract % Increase Over Blf [1, 8]: 75% | IL-18 Serum % Increase Over Blf [1, 8]: 94% | IL-18 Intestinal Extract % Increase Over Control [1, 9]: 775% | IL-18 Serum % Increase Over Control [1, 9]: 132% | IL-18 level, Intestinal Extract [1, 9]: 8,350 pg | IL-18 level, Serum [1, 9]: 328 pg | IL-18 Intestinal Extract % Increase Over Blf [1, 10]: 85% | IL-18 Serum % Increase Over Blf [1, 10]: 145% | amounts of IL-18 in both the serum and in the intestinal extract ([1]; oral, both doses (65 and 300 mg/kg/day)): significantly enhanced | increase in TGI over monotherapy with radiation ([2]; both rhLF and radiation): 15% | increase in TGI over monotherapy with rhLF ([2]; both rhLF and radiation): 28% | Inhibition Relative to Placebo ([2]; rhLF 200 mg/kg oral days 5-12 plus 2 Gray on day 5): 68% | Inhibition Relative to Placebo ([2]; rhLF 200 mg/kg oral days 5-12 plus 2 Gray on day 8): 66% | Inhibition Relative to Placebo ([2]; rhLF 200 mg/kg oral days 5-12 plus 2 Gray, both radiation schedules pooled): 67% | Inhibition Relative to Placebo ([2]; rhLF 200 mg/kg oral once daily days 5-12, no radiation): 54% | increase in number of circulating lymphocytes relative to placebo ([3]; across CD3+, CD4+, CD8+ populations): 34% to 56 | Number of Cells CD3+ [3, 11]: 3291 | Number of Cells CD4+ [3, 11]: 2621 | Number of Cells CD8+ [3, 11]: 1054 | Increase with rhLF, CD3+ cells ([3]; relative to placebo): 56% | Increase with rhLF, CD4+ cells ([3]; relative to placebo): 46% | Increase with rhLF, CD8+ cells ([3]; relative to placebo): 34% | reduction of rates of tumor growth versus pooled placebo ([4]; Group A, single intratumoral dose (100-500 μg), day 11 after the administration): 50% | reduction of rates of tumor growth versus pooled control group ([4]; Group C, intratumoral twice daily for 8 days (25-500 μg per dose)): 56% | GM-CSF Increase over Placebo [5]: 19.4% (p < 0.01) | GM-CSF level, Mean (SEM) ([5]; 5 animals per group): 7.74 (0.19) pg | TGI (%) Relative to Placebo [6]: 33%
